The values below come from paper PMC13069688.

The subject of series [1] is LacI-Halo WT (Escherichia coli). Briefly: PBM real-time kinetics (kd/ka). As to conditions: PBM: imaging buffer (Na+ + K+ about 30 mM; composition and pH not in the material), EMSA: 1 nM DNA, 0-500 nM LacI (monomer), 1x imaging buffer with 20, 100 or ….
For series [2], the system named is Q55N-LacI-Halo Q55N (Escherichia coli). Briefly: PBM real-time kinetics (kd/ka). As to conditions: PBM: imaging buffer (Na+ + K+ about 30 mM; composition and pH not in the material), EMSA: 1 nM DNA, 0-500 nM LacI (monomer), 1x imaging buffer with 20, 100 or …. (In general: Mobility shift assays separate free from complexed probe on a gel.)
Series [3] deals with V52A-LacI-Halo V52A (Escherichia coli). In words: PBM real-time kinetics (kd/ka). To be noted: PBM: imaging buffer (Na+ + K+ about 30 mM; composition and pH not in the material), EMSA: 1 nM DNA, 0-500 nM LacI (monomer), 1x imaging buffer with 20, 100 or ….
Series [4] deals with LacI-Halo WT (Escherichia coli). In words: EMSA. To be noted: NaCl titration; Methods list 20, 100, 200 mM; Kd values only in figure; PBM: imaging buffer (Na+ + K+ about 30 mM; composition and pH not in the material); EMSA: 1 nM DNA, 0-500 nM LacI (monomer), 1x imaging buffer with 20, 100 or ….
Series [5] relates to Q55N-LacI-Halo Q55N (Escherichia coli). Briefly: EMSA. To be noted: NaCl titration; Methods list 20, 100, 200 mM; Kd values only in figure; PBM: imaging buffer (Na+ + K+ about 30 mM; composition and pH not in the material); EMSA: 1 nM DNA, 0-500 nM LacI (monomer), 1x imaging buffer with 20, 100 or ….

O1 operator (PBM): the binding signal (KD/WT-KD(Osym)) in series [1] (relative ka 0.66, kd 8.84 ± 0.12 e-4 s-1) stood at 6.1; in series [2] (relative ka 0.35, kd 22.79 ± 0.89 e-4 s-1) it was 28.4; in series [3] (relative ka 0.72, kd 3.80 ± 0.06 e-4 s-1) it was 2.6.

Turning to Osym 60 bp EMSA probe, the binding signal (fold KD increase, 50 to 200 mM NaCl) was determined as 10 in series [4] and 2 in series [5].

In the case of Osym operator (PBM), the binding signal (KD/WT-KD(Osym)) in series [1] (reference, kd 2.14 ± 0.03 e-4 s-1) stood at 1; in series [2] (relative ka 0.89, kd 7.39 ± 0.13 e-4 s-1), 3.6; in series [3] (relative ka 1.03, kd 0.89 ± 0.02 e-4 s-1), 0.4.

For O2 operator (PBM), the binding signal (KD/WT-KD(Osym)) in series [1] (relative ka 0.42, kd 13.25 ± 0.35 e-4 s-1) is 14.1; in series [2] (relative ka 0.12, kd 36.53 ± 3.80 e-4 s-1) it was 140; in series [3] (relative ka 0.58, kd 4.84 ± 0.10 e-4 s-1), 4.1.
